In patent US20050079613:

T1: GST-MmUbc6
T1 sequence (Q9JJZ4 whole entry, looked up): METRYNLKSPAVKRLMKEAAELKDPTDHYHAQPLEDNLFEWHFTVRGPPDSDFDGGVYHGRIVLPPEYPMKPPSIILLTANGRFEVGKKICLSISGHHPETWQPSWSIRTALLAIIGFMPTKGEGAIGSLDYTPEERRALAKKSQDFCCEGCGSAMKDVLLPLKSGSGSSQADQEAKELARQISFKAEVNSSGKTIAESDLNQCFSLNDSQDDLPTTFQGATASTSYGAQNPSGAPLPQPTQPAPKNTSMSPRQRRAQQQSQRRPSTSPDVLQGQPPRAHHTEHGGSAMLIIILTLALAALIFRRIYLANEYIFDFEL

T2: GST-MmUbc7, P60605
T2 chain: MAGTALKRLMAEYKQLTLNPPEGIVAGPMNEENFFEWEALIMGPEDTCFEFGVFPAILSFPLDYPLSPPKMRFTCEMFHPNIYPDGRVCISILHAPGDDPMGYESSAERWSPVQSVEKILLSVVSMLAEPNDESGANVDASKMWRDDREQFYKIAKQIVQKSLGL

T3: UbCH2, P62256
T3 chain: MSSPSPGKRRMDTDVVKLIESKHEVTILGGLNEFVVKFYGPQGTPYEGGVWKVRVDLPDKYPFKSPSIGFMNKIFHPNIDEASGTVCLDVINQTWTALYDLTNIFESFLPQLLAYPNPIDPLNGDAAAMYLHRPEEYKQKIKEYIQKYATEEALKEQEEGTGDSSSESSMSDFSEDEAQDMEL

B1: GST-ICP0-RING (amino acids 1-241 of ICP0) (protein)
chain: MEPRPGASTRRPEGRPQREPAPDVWVFPCDRDLPDSSDSEAETEVGGRGDADHHDDDSASEADSTDTELFETGLLGPQGVDGGAVSGGSPPREEDPGSCGGAPPREDGGSDEGDVCAVCTDEIAPHLRCDTFPCMHRFCIPCMKTWMQLRNTCPLCNAKLVYLIVGVTPSGSFSTIPIVNDPQTRMEAEEAVRAGTAVDFIWTGNQRFAPRYLTLGGHTVRALSPTHPEPTTDEDDDDLDD
B2: GST fusion of the MARCH-I RING-CH domain (protein)
chain: MTSSHVCCNFLNMWKKSKISTMYYLNQDAKLSNLFLQASSPTTGTAPRSQSRLSVCPSTQDICRICHCEGDEESPLITPCRCTGTLRFVHQSCLHQWIKSSDTRCCELCKYDFIMETKLKPLRKWEKLQMTTSERRK
B3: GST fusion of the MARCH-IV RING-CH domain (protein)
chain: WYCYGLCAPAPQMLRHQGLLKCRCRMLFNDLKVFLLRRPPQAPLPMHGDPQPPGLAANNTLPALGAGGWAGWRGPREVVGREPPPVPPPPPLPPSSVEDDWGGPATEPPASLLSSASSDDFCKEKTEDRYSLGSSLDSGMRTPLCRICFQGPEQGELLSPCRCDGSVKCTHQPCLIKWISERGCWSCELCYYKYHVIAISTKNPLQWQAISLTVIEKVQ

What was measured:
GST-MmUbc6 = target: T1, GST-MmUbc6
GST-MmUbc7, P60605 = target: T2, GST-MmUbc7, P60605
[1] = target: three human E2 enzymes UbCH2, UbCH3 and UbCH5a (at least one of these three enzymes)
UbCH2, P62256 = target: T3, UbCH2, P62256

GST-UbCH5a, P51668, sequence (P51668 whole entry): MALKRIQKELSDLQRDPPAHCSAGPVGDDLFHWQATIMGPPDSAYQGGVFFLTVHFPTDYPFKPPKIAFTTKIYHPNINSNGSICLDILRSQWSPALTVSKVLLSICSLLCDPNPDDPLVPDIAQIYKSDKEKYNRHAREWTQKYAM

| Protein | formation of high-molecular weight ubiquitin complexes in vitro (anti-ubiquitin blot) (GST-UbCH5a, P51668) | formation of high-molecular weight ubiquitin complexes in vitro (anti-ubiquitin blot) (GST-MmUbc6) | promotion of ubiquitination in vitro (GST-MmUbc7, P60605) | formation of high-molecular weight ubiquitin complexes in vitro (anti-ubiquitin blot) (E2 enzymes tested) | formation of high-molecular weight ubiquitin complexes in vitro (anti-ubiquitin blot) [1] | promotion of ubiquitination in vitro (GST-MmUbc6) | formation of high-molecular weight ubiquitin complexes in vitro (anti-ubiquitin blot) (UbCH2, P62256) |
| --- | --- | --- | --- | --- | --- | --- | --- |
| B1 | ICPO promoted the formation of high-molecular weight complexes in the presence of the E2 enzyme ubCH5a | The ICP0-RING domain also showed some activity with the murine ER-bound E2 enzyme MmUbc6 |  |  |  |  |  |
| B2 | MARCH-I was less active with most E2 enzymes tested with the notable exception of UbCH5a |  | Whereas MARCH-II was able to function with both proteins, MARCH-I was only active with MmUbc6 | MARCH-I was less active with most E2 enzymes tested with the notable exception of UbCH5a | The RiNG-CH-GST fusion proteins of all four MARCH-proteins tested were able to catalyze the formation of high-molecular weight molecular ubiquitin complexes in the presence of at least one of these three enzymes | MARCH-I was only active with MmUbc6 |  |
| B3 |  |  |  |  | The RiNG-CH-GST fusion proteins of all four MARCH-proteins tested were able to catalyze the formation of high-molecular weight molecular ubiquitin complexes in the presence of at least one of these three enzymes |  | MARCH-IV was mostly active with UbCH2 |
